According to patent US20190092819A1 (published 2019):

T1: soluble CD46 (UniProt P15529 35-343, limits assumed)
T1 construct: also called sCD46
T1 sequence (looked up): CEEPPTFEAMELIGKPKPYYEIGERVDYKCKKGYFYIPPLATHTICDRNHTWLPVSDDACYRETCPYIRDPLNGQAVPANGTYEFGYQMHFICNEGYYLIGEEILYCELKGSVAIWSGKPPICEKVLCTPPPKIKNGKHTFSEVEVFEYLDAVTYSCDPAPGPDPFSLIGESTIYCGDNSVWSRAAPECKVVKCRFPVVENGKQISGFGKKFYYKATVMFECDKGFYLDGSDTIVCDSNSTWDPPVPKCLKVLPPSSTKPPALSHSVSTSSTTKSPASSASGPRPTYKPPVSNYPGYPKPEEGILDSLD

T2: Desmoglein 2 (DSG2) on cells (human, UniProt Q14126 50-1118)
T2 sequence (looked up): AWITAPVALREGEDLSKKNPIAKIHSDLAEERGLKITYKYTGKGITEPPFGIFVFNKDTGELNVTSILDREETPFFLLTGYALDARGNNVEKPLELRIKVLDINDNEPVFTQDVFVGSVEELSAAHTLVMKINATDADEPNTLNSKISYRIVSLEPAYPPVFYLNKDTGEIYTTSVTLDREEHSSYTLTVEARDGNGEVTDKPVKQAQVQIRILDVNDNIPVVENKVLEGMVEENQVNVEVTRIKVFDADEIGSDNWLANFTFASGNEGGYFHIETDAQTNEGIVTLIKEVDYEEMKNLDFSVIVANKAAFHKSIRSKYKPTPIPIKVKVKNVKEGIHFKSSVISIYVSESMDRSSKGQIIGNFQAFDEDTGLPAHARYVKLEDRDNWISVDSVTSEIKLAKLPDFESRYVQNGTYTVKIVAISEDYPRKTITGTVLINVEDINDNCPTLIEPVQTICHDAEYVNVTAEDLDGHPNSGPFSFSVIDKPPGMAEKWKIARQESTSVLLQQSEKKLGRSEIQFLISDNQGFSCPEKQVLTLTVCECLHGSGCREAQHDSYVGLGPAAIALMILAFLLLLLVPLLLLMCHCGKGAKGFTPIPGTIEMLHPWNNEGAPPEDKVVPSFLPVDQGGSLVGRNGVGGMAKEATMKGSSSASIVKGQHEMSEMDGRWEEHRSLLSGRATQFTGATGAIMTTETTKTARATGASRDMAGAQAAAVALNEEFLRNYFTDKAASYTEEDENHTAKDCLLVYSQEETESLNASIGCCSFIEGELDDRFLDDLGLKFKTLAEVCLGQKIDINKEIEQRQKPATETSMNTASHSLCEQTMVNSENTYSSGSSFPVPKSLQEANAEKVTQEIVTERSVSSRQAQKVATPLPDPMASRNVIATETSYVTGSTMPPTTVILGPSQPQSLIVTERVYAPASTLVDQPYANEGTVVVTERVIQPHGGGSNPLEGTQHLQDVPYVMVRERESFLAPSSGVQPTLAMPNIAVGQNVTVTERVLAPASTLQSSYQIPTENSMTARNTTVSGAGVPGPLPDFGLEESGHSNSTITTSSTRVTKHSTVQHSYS

B1: Ad3-S2/Kn (ligand, human adenovirus serotype 3, UniProt P04501 108-319, looked up)
chain: NKLCSKLGNGLTFDSSNSIALKNNTLWTGPKPEANCIIEYGKQNPDSKLTLILVKNGGIVNGYVTLMGASDYVNTLFKNKNVSINVELYFDATGHILPDSSSLKTDLELKYKQTADFSARGFMPSTTAYPFVLPNAGTHNENYIFGQCYYKASDGALFPLEVTVMLNKRLPDSRTSYVMTFLWSLNAGLAPETTQATLITSPFTFSYIREDD
notes: domain: fiber knob with shaft motifs (S2)
B2: Ad3-S4/Kn (ligand, human adenovirus serotype 3, UniProt P04501 77-319, looked up)
chain: SLEENIKVNTPLTKSNHSINLPIGNGLQIEQNKLCSKLGNGLTFDSSNSIALKNNTLWTGPKPEANCIIEYGKQNPDSKLTLILVKNGGIVNGYVTLMGASDYVNTLFKNKNVSINVELYFDATGHILPDSSSLKTDLELKYKQTADFSARGFMPSTTAYPFVLPNAGTHNENYIFGQCYYKASDGALFPLEVTVMLNKRLPDSRTSYVMTFLWSLNAGLAPETTQATLITSPFTFSYIREDD
notes: domain: fiber knob with shaft motifs (S4)
B3: Ad3-S3/Kn (ligand, human adenovirus serotype 3, UniProt P04501 94-319, looked up)
chain: SINLPIGNGLQIEQNKLCSKLGNGLTFDSSNSIALKNNTLWTGPKPEANCIIEYGKQNPDSKLTLILVKNGGIVNGYVTLMGASDYVNTLFKNKNVSINVELYFDATGHILPDSSSLKTDLELKYKQTADFSARGFMPSTTAYPFVLPNAGTHNENYIFGQCYYKASDGALFPLEVTVMLNKRLPDSRTSYVMTFLWSLNAGLAPETTQATLITSPFTFSYIREDD
notes: domain: fiber knob with shaft motifs (S3)
B4: Ad3-S5/Kn (ligand, human adenovirus serotype 3, UniProt P04501 60-319, looked up)
chain: SLQLKVGSGLTVDTTDGSLEENIKVNTPLTKSNHSINLPIGNGLQIEQNKLCSKLGNGLTFDSSNSIALKNNTLWTGPKPEANCIIEYGKQNPDSKLTLILVKNGGIVNGYVTLMGASDYVNTLFKNKNVSINVELYFDATGHILPDSSSLKTDLELKYKQTADFSARGFMPSTTAYPFVLPNAGTHNENYIFGQCYYKASDGALFPLEVTVMLNKRLPDSRTSYVMTFLWSLNAGLAPETTQATLITSPFTFSYIREDD
notes: domain: fiber knob with shaft motifs (S5)
B5: dimeric Ad3 fiber knob mutant D261N (ligand)
chain: MKVSALKEKVSALKEKVSALKEKVSALKEKVSALKEGSGGGSGGGSGGGSNSIALKNNTLWTGPKPEANCIIEYGKQNPDSKLTLILVKNGGIVNGYVTLMGASDYVNTLFKNKNVSINVELYFDATGHILPDSSSLKTDLELKYKQTADFSARGFMPSTTAYPFVLPNAGTHNENYIFGQCYYKASNGALFPLEVTVMLNKRLPDSRTSYVMTFLWSLNAGLAPETTQATLITSPFTFSYIREDD
B6: dimeric Ad3 fiber knob mutant N186D (ligand)
chain: MKVSALKEKVSALKEKVSALKEKVSALKEKVSALKEGSGGGSGGGSGGGSNSIALKNNTLWTGPKPEANCIIEYGKQNPDSKLTLILVKNGGIVNGYVTLMGASDYVNTLFKDKNVSINVELYFDATGHILPDSSSLKTDLELKYKQTADFSARGFMPSTTAYPFVLPNAGTHNENYIFGQCYYKASDGALFPLEVTVMLNKRLPDSRTSYVMTFLWSLNAGLAPETTQATLITSPFTFSYIREDD
notes: Self-dimerizing form (JO-1 format)
B7: dimeric Ad3 fiber knob mutant E299V (ligand)
chain: MKVSALKEKVSALKEKVSALKEKVSALKEKVSALKEGSGGGSGGGSGGGSNSIALKNNTLWTGPKPEANCIIEYGKQNPDSKLTLILVKNGGIVNGYVTLMGASDYVNTLFKNKNVSINVELYFDATGHILPDSSSLKTDLELKYKQTADFSARGFMPSTTAYPFVLPNAGTHNENYIFGQCYYKASDGALFPLEVTVMLNKRLPDSRTSYVMTFLWSLNAGLAPVTTQATLITSPFTFSYIREDD
notes: JO-1 format
B8: dimeric Ad3 fiber knob mutant F265L (ligand)
chain: MKVSALKEKVSALKEKVSALKEKVSALKEKVSALKEGSGGGSGGGSGGGSNSIALKNNTLWTGPKPEANCIIEYGKQNPDSKLTLILVKNGGIVNGYVTLMGASDYVNTLFKNKNVSINVELYFDATGHILPDSSSLKTDLELKYKQTADFSARGFMPSTTAYPFVLPNAGTHNENYIFGQCYYKASDGALLPLEVTVMLNKRLPDSRTSYVMTFLWSLNAGLAPETTQATLITSPFTFSYIREDD
notes: JO-1 format
B9: dimeric Ad3 fiber knob mutant V189G (ligand)
chain: MKVSALKEKVSALKEKVSALKEKVSALKEKVSALKEGSGGGSGGGSGGGSNSIALKNNTLWTGPKPEANCIIEYGKQNPDSKLTLILVKNGGIVNGYVTLMGASDYVNTLFKNKNGSINVELYFDATGHILPDSSSLKTDLELKYKQTADFSARGFMPSTTAYPFVLPNAGTHNENYIFGQCYYKASDGALFPLEVTVMLNKRLPDSRTSYVMTFLWSLNAGLAPETTQATLITSPFTFSYIREDD
notes: JO-1 format
B10: dimeric Ad3 fiber knob mutant L296R (ligand)
chain: MKVSALKEKVSALKEKVSALKEKVSALKEKVSALKEGSGGGSGGGSGGGSNSIALKNNTLWTGPKPEANCIIEYGKQNPDSKLTLILVKNGGIVNGYVTLMGASDYVNTLFKNKNVSINVELYFDATGHILPDSSSLKTDLELKYKQTADFSARGFMPSTTAYPFVLPNAGTHNENYIFGQCYYKASDGALFPLEVTVMLNKRLPDSRTSYVMTFLWSLNAGRAPETTQATLITSPFTFSYIREDD
notes: JO-1 format
B11: dimeric Ad3 fiber knob mutant D261N, L296R (ligand)
chain: MKVSALKEKVSALKEKVSALKEKVSALKEKVSALKEGSGGGSGGGSGGGSNSIALKNNTLWTGPKPEANCIIEYGKQNPDSKLTLILVKNGGIVNGYVTLMGASDYVNTLFKNKNVSINVELYFDATGHILPDSSSLKTDLELKYKQTADFSARGFMPSTTAYPFVLPNAGTHNENYIFGQCYYKASNGALFPLEVTVMLNKRLPDSRTSYVMTFLWSLNAGRAPETTQATLITSPFTFSYIREDD
notes: JO-1 format; Positions count on the full Ad3 fiber; also called combination of D261N and L296R
B12: dimeric Ad3 fiber knob mutant S190P (ligand)
chain: MKVSALKEKVSALKEKVSALKEKVSALKEKVSALKEGSGGGSGGGSGGGSNSIALKNNTLWTGPKPEANCIIEYGKQNPDSKLTLILVKNGGIVNGYVTLMGASDYVNTLFKNKNVPINVELYFDATGHILPDSSSLKTDLELKYKQTADFSARGFMPSTTAYPFVLPNAGTHNENYIFGQCYYKASDGALFPLEVTVMLNKRLPDSRTSYVMTFLWSLNAGLAPETTQATLITSPFTFSYIREDD
notes: JO-1 format; also called 5190P
B13: dimeric Ad3 fiber knob mutant N186D, D261N (ligand)
chain: MKVSALKEKVSALKEKVSALKEKVSALKEKVSALKEGSGGGSGGGSGGGSNSIALKNNTLWTGPKPEANCIIEYGKQNPDSKLTLILVKNGGIVNGYVTLMGASDYVNTLFKDKNVSINVELYFDATGHILPDSSSLKTDLELKYKQTADFSARGFMPSTTAYPFVLPNAGTHNENYIFGQCYYKASNGALFPLEVTVMLNKRLPDSRTSYVMTFLWSLNAGLAPETTQATLITSPFTFSYIREDD
notes: JO-1 format; Positions count on the full Ad3 fiber; also called combination of N186D and D261N

Key:
[1] = target: Desmoglein 2 (DSG2) on cells (human) (UniProt Q14126); assay: competition: attachment of 3H-labelled Ad3 virus (competitor) to HeLa cells after pre-incubation with dimeric knob; scintillation counting
[2] = target: Desmoglein 2 (DSG2) on cells (human) (UniProt Q14126); assay: cell-based or functional assay
[3] = target: T1, soluble CD46; assay: Western blot probed with soluble CD46 and anti-CD46 mAb
[4] = target: T2, Desmoglein 2 (DSG2) on cells; assay: cell-based or functional assay
[5] = target: T2, Desmoglein 2 (DSG2) on cells; assay: competition: attachment of 3H-labelled Ad3 virus (competitor) to HeLa cells after pre-incubation with dimeric knob; scintillation counting
[6] = target: Recombinant human DSG2 protein (desmoglein 2), soluble (human) (UniProt Q14126); assay: Western blot of purified dimeric knob (trimer band) probed with soluble recombinant DSG2, anti-DSG2 mAb and anti-mouse IgG-HRP; bands quantified

Row | Molecule | Inhibition of infection in the presence of dimeric knob (JO-1 = 100%) [4] | Inhibition of attachment in the presence of dimeric knob (JO-1 = 100%) [5] | other results
1 | dimeric Ad3 fiber knob mutant N186D, D261N, L296R (ligand) | – | – | Inhibition of attachment in the presence of dimeric knob (JO-1 = 100%) (% (JO-1 = 100%)) [1]: 18.5; Inhibition of infection in the presence of dimeric knob (JO-1 = 100%) (% (JO-1 = 100%)) [2]: 0
2 | B1 | – | – | binding result [3]: no binding
3 | B2 | – | – | binding result [3]: no binding
4 | B3 | – | – | binding result [3]: no binding
5 | B4 | – | – | binding result [3]: no binding
6 | B5 | – | – | Inhibition of attachment in the presence of dimeric knob (JO-1 = 100%) (% (JO-1 = 100%)) [1]: 45; Inhibition of infection in the presence of dimeric knob (JO-1 = 100%) (% (JO-1 = 100%)) [2]: 5.3
7 | B6 | 32.7 % (JO-1 = 100%) | 56.5 % (JO-1 = 100%) | –
8 | B7 | 50.7 % (JO-1 = 100%) | 97.3 % (JO-1 = 100%) | –
9 | B8 | 17.6 % (JO-1 = 100%) | 55.6 % (JO-1 = 100%) | –
10 | B9 | 54 % (JO-1 = 100%) | 81 % (JO-1 = 100%) | –
11 | B10 | 5.1 % (JO-1 = 100%) | 73.7 % (JO-1 = 100%) | –
12 | B11 | 1.5 % (JO-1 = 100%) | 20.1 % (JO-1 = 100%) | Western blot Residual DSG2 binding (wtAd3 knob = 100%) [6]: 7%
13 | B12 | 30.9 % (JO-1 = 100%) | 73.4 % (JO-1 = 100%) | –
14 | B13 | 5.2 % (JO-1 = 100%) | 23.5 % (JO-1 = 100%) | Western blot Residual DSG2 binding (wtAd3 knob = 100%) [6]: 7%
